Tests used:
ccnt1_human CCNT1 = ccnt1_human CCNT1 (UniProt O60563)
cdk9_human CDK9 = cdk9_human CDK9 (UniProt P50750)

Question: With “Bromodomain-containing protein 4 (Homo sapiens) (from UniProt O60885-1) R1337P” as the substance, how does the “effect of a mutation on the interaction” value (ccnt1_human CCNT1) read?
Answer: The value was “disrupting interaction”.

Question: And the “effect of a mutation on the interaction” value (cdk9_human CDK9)?
Answer: Its value is “disrupting interaction”.

Source: IntAct's records for PubMed 17690245
